Several values for one entry are separate records, joined by “and”; a condition that tells them apart may be missing. Identical values can stand only once. Like-named read-outs stand apart in the source and are kept apart here.
Conditions: for Any DLTs: first 2 cycles
Protocol: The phase 1a dose escalation study in US (ClinicalTrials.gov Identifier: NCT03707093) included accelerated titration (0.03, 0.1 and 0.3 mg/kg) and conventional dose escalation (1, 3, and 10 mg/kg). The phase 1a dose escalation study in China (ClinicalTrials.gov Identifier: NCT03802955) included accelerated titration (0.1 mg/kg) and conventional dose escalation (0.5, 1.5, 3, 5, and 10 mg/kg). […] Patients with advanced or metastatic solid tumors and/or non-Hodgkin lymphoma who were refractory or relapsed and exhausted all available therapies were enrolled and received treatment until disease progression, intolerable toxicity, withdrawal with consent, or for a maximum of 24 months.
Dose expansion studies were conducted for dose levels that were proven tolerable in Phase 1a and with evidence of clinical or biological activity. The dose levels studied in Phase 1 b were 3 mg/kg and 5 mg/kg.

Substance: ADG106: fully human agonistic anti-CD137 monoclonal IgG4 antibody; heavy chain SEQ ID NO: 10, light chain SEQ ID NO: 11
- >=G3 adverse events (0.03 mg/kg N=1): 1 (100) n (%)
- Any Drug Related TEAEs (0.03 mg/kg N=1): 1 (100) n (%)
- Any SAE (0.03 mg/kg N=1): 0 n (%)
- Any TEAEs Leading to Study Drug Discontinuation (0.03 mg/kg N=1): 0 n (%)
- Any TEAEs leading to Study Drug Dose Reduction or Interruption (0.03 mg/kg N=1): 1 (100) n (%)
- Any TEAEs with Outcome of Death (0.03 mg/kg N=1): 0 n (%)
- Drug Related SAE (0.03 mg/kg N=1): 0 n (%)
- SAE leading to Drug discontinuation (0.03 mg/kg N=1): 0 n (%)
- Any DLTs (0.03 mg/kg N=1): 0 n (%)
- >=G3 adverse events (0.1 mg/kg N=2): 0 n (%)
- Any Drug Related TEAEs (0.1 mg/kg N=2): 2 (100) n (%)
- Any SAE (0.1 mg/kg N=2): 0 n (%)
- Any TEAEs Leading to Study Drug Discontinuation (0.1 mg/kg N=2): 0 n (%)
- Any TEAEs leading to Study Drug Dose Reduction or Interruption (0.1 mg/kg N=2): 0 n (%)
- Any TEAEs with Outcome of Death (0.1 mg/kg N=2): 0 n (%)
- Drug Related SAE (0.1 mg/kg N=2): 0 n (%)
- SAE leading to Drug discontinuation (0.1 mg/kg N=2): 0 n (%)
- Any DLTs (0.1 mg/kg N=2): 0 n (%)
- >=G3 adverse events (0.3 mg/kg N=1): 1 (100) n (%)
- Any Drug Related TEAEs (0.3 mg/kg N=1): 1 (100) n (%)
- Any SAE (0.3 mg/kg N=1): 0 n (%)
- Any TEAEs Leading to Study Drug Discontinuation (0.3 mg/kg N=1): 0 n (%)
- Any TEAEs leading to Study Drug Dose Reduction or Interruption (0.3 mg/kg N=1): 0 n (%)
- Any TEAEs with Outcome of Death (0.3 mg/kg N=1): 0 n (%)
- Drug Related SAE (0.3 mg/kg N=1): 0 n (%)
- SAE leading to Drug discontinuation (0.3 mg/kg N=1): 0 n (%)
- Any DLTs (0.3 mg/kg N=1): 0 n (%)
- >=G3 adverse events (0.5 mg/kg N=3): 0 n (%)
- Any Drug Related TEAEs (0.5 mg/kg N=3): 2 (67) n (%)
- Any SAE (0.5 mg/kg N=3): 0 n (%)
- Any TEAEs Leading to Study Drug Discontinuation (0.5 mg/kg N=3): 0 n (%)
- Any TEAEs leading to Study Drug Dose Reduction or Interruption (0.5 mg/kg N=3): 0 n (%)
- Any TEAEs with Outcome of Death (0.5 mg/kg N=3): 0 n (%)
- Drug Related SAE (0.5 mg/kg N=3): 0 n (%)
- SAE leading to Drug discontinuation (0.5 mg/kg N=3): 0 n (%)
- Any DLTs (0.5 mg/kg N=3): 0 n (%)
- >=G3 adverse events (1 mg/kg N=4): 3 (75) n (%)
- Any Drug Related TEAEs (1 mg/kg N=4): 4 (100) n (%)
- Any SAE (1 mg/kg N=4): 1 (25) n (%)
- Any TEAEs Leading to Study Drug Discontinuation (1 mg/kg N=4): 1 (25) n (%)
- Any TEAEs leading to Study Drug Dose Reduction or Interruption (1 mg/kg N=4): 0 n (%)
- Any TEAEs with Outcome of Death (1 mg/kg N=4): 1 (25) n (%)
- Drug Related SAE (1 mg/kg N=4): 0 n (%)
- SAE leading to Drug discontinuation (1 mg/kg N=4): 0 n (%)
- Any DLTs (1 mg/kg N=4): 0 n (%)
- >=G3 adverse events (1.5 mg/kg N=5): 0 n (%)
- Any Drug Related TEAEs (1.5 mg/kg N=5): 2 (40) n (%)
- Any SAE (1.5 mg/kg N=5): 1 (20) n (%)
- Any TEAEs Leading to Study Drug Discontinuation (1.5 mg/kg N=5): 0 n (%)
- Any TEAEs leading to Study Drug Dose Reduction or Interruption (1.5 mg/kg N=5): 0 n (%)
- Any TEAEs with Outcome of Death (1.5 mg/kg N=5): 0 n (%)
- Drug Related SAE (1.5 mg/kg N=5): 0 n (%)
- SAE leading to Drug discontinuation (1.5 mg/kg N=5): 0 n (%)
- Any DLTs (1.5 mg/kg N=5): 0 n (%)
- >=G3 adverse events (3 mg/kg N=12): 4 n (%)
- Any Drug Related TEAEs (3 mg/kg N=12): 6 n (%)
- Any SAE (3 mg/kg N=12): 3 n (%)
- Any TEAEs Leading to Study Drug Discontinuation (3 mg/kg N=12): 1 n (%)
- Any TEAEs leading to Study Drug Dose Reduction or Interruption (3 mg/kg N=12): 0 n (%)
- Any TEAEs with Outcome of Death (3 mg/kg N=12): 1 n (%)
- Drug Related SAE (3 mg/kg N=12): 0 n (%)
- SAE leading to Drug discontinuation (3 mg/kg N=12): 0 n (%)
- Any DLTs (3 mg/kg N=12): 0 n (%)
- >=G3 adverse events (5 mg/kg N=7): 2 (39) n (%)
- Any Drug Related TEAEs (5 mg/kg N=7): 4 (57) n (%)
- Any SAE (5 mg/kg N=7): 3 (43) n (%)
- Any TEAEs Leading to Study Drug Discontinuation (5 mg/kg N=7): 1 (14) n (%)
- Any TEAEs leading to Study Drug Dose Reduction or Interruption (5 mg/kg N=7): 0 n (%)
- Any TEAEs with Outcome of Death (5 mg/kg N=7): 0 n (%)
- Drug Related SAE (5 mg/kg N=7): 2 (29) n (%)
- SAE leading to Drug discontinuation (5 mg/kg N=7): 1 (14) n (%)
- Any DLTs (5 mg/kg N=7): 1 n (%) and 1 (14) n (%)
- >=G3 adverse events (10 mg/kg N=5): 4 (80) n (%)
- Any Drug Related TEAEs (10 mg/kg N=5): 4 (80) n (%)
- Any SAE (10 mg/kg N=5): 2 (40) n (%)
- Any TEAEs Leading to Study Drug Discontinuation (10 mg/kg N=5): 2 (40) n (%)
- Any TEAEs leading to Study Drug Dose Reduction or Interruption (10 mg/kg N=5): 0 n (%)
- Any TEAEs with Outcome of Death (10 mg/kg N=5): 0 n (%)
- Drug Related SAE (10 mg/kg N=5): 2 (40) n (%)
- SAE leading to Drug discontinuation (10 mg/kg N=5): 2 (40) n (%)
- SAEs related to the study treatment (China update): 7
- DLT observed (China update Nov. 30, 2020, 18 dose escalation patients, Grade 4 neutrophil count decreased at 10 mg/kg): 1
- TEAE C-reactive protein increase (China update, 57 patients): 35%
- TEAE anemia (China update, 57 patients): 46%
- TEAE aspartate aminotransferase increase (China update, 57 patients): 32%
- TEAE asthenia (China update, 57 patients): 30%
- TEAE blood present in urine (China update, 57 patients): 21%
- TEAE constipation (China update, 57 patients): 25%
- TEAE cough (China update, 57 patients): 23%
- TEAE hypoalbuminaemia (China update, 57 patients): 30%
- TEAE hypochloraemia (China update, 57 patients): 23%
- TEAE hyponatraemia (China update, 57 patients): 30%
- TEAE platelet count increase (China update, 57 patients): 21%
- TEAE proteinuria (China update, 57 patients): 39%
- TEAE pruritus (China update, 57 patients): 21%
- TEAE rash (China update, 57 patients): 25%
- TEAE white blood cell count decrease (China update, 57 patients): 26%

Reference: patent US20230133118A1, “COMPOSITIONS AND METHODS FOR TREATING CANCER” (Adagene AG, priority 2020, published 2023)
